Data reported in publication PMC3581772.

Key:
[1] = target: amyloid β peptide Aβ(1–42) (UniProt P05067)
[2] = target: T1, I59T human lysozyme (human) (UniProt P61626)
T1 sequence: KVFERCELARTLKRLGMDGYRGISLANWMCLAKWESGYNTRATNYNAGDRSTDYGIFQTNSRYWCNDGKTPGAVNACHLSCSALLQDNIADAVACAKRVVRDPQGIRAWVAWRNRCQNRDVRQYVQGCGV

trypsin-activated α2M, sequence (P01023 whole entry, looked up): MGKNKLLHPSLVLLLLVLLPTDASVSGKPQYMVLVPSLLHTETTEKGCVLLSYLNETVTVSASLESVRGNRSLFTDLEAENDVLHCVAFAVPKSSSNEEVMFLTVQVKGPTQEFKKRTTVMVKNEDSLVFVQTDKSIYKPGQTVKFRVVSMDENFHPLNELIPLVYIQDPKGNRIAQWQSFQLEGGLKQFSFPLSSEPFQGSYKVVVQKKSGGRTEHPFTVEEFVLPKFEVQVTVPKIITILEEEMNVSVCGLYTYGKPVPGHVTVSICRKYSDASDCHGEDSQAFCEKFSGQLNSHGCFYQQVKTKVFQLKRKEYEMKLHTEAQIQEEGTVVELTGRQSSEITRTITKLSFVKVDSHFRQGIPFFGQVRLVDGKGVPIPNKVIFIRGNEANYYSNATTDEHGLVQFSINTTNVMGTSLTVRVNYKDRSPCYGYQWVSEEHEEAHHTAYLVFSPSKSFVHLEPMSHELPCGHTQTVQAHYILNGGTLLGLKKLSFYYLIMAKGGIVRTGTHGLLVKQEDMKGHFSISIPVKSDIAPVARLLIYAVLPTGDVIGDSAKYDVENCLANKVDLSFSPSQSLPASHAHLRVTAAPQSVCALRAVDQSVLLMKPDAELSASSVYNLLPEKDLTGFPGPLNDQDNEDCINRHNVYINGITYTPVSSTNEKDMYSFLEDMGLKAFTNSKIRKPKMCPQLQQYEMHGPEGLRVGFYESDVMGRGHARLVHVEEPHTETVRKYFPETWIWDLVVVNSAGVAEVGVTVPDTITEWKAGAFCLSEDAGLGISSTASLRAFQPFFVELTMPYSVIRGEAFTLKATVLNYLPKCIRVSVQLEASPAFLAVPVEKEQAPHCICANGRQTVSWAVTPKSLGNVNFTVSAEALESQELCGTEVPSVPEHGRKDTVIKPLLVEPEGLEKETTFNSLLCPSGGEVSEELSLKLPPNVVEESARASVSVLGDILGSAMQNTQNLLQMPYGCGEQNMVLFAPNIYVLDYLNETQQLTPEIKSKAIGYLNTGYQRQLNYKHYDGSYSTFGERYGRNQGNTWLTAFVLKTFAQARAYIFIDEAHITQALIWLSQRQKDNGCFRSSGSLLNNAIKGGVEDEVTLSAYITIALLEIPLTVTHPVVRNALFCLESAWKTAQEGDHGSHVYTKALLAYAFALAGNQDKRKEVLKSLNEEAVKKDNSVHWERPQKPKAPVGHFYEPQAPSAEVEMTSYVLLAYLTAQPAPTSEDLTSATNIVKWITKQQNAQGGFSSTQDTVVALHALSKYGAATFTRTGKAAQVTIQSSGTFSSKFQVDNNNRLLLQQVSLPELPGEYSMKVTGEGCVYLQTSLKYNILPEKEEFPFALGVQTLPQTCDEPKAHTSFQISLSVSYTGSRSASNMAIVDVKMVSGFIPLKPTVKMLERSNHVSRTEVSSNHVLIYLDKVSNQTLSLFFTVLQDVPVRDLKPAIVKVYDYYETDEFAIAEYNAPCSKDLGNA

suppression of ThT signal at the endpoint of Aβ(1–42) fibril formation, Aβ-to-α2M 10:1 [1]: > 80%
decrease of ThT fluorescence at the endpoint of I59T lysozyme fibril formation, lysozyme-to-α2M 10:1 [2]: > 90%
Substance: trypsin-activated α2M (from UniProt P01023 24-1474) (complex)
